Kd data for three molecules are collected here from article PMC9501438 (International Journal of Molecular Sciences, 2022).

Experiment [1] addresses T1, UBCH5B (UniProt P62837 1-147).
T1 construct: UBCH5B, E2 ubiquitin-conjugating enzyme, wild type; 15N-labelled in the NMR titrations; also called E2 enzyme UBCH5B; wt UBCH5B
In words: ITC; Microcal PEAQ ITC, 25 °C; 75-200 uM Arkadia polypeptide in the cell, 0.75-2 mM UBCH5B from the syringe in 2 uL injections; single site-binding model. The settings on record: both partners purified. (In general: ITC needs no label: the signal is the heat of the interaction.)

Experiment [2] deals with T1, UBCH5B. Described as above. Conditions: both partners purified. The source holds these as a separate data set.

B1: Arkadia RING 68 aa (domain or fragment)
chain: KQDGEEGTEEDTEEKCTICLSILEEGEDVRRLPCMHLFHQVCVDQWLITNKKCPICRVDIEAQLPSES
notes: Cloned into pGEX-4T-1; also called Ark RING 68aa; Ark 68 aa; source: E. coli, purified (GST-trap, thrombin cleavage, Superdex 75 SEC); not shown: GST, N-terminal, cleaved
For B1, in experiment [1], the Kd (commonly a measure of binding affinity in units of concentration) was determined as 32 µM.

B2: Arkadia 90 aa polypeptide (domain or fragment)
chain: CTYPHKYKKVTTDWFSQRKLHCKQDGEEGTEEDTEEKCTICLSILEEGEDVRRLPCMHLFHQVCVDQWLITNKKCPICRVDIEAQLPSES
notes: Arkadia (RNF111), human, isoform 1, residues 905-994: NLS, the segment unique to isoform 1 and the RING-H2 domain; Cloned into pGEX-4T-1; also called Ark 90 aa; source: E. coli, purified (GST-trap, thrombin cleavage, Superdex 75 SEC); not shown: GST, N-terminal, cleaved
B2 registered a Kd in experiment [2] of 23 µM.

B3: Arkadia 119 aa polypeptide (domain or fragment)
chain: FRGNFEELIHLEERLGNVNRGASQGTIERCTYPHKYKKVTTDWFSQRKLHCKQDGEEGTEEDTEEKCTICLSILEEGEDVRRLPCMHLFHQVCVDQWLITNKKCPICRVDIEAQLPSES
notes: Cloned into pGEX-4T-1; source: E. coli, purified (GST-trap, thrombin cleavage, Superdex 75 SEC); not shown: GST, N-terminal, cleaved
Molecule B3 showed a dissociation constant (Kd) in experiment [1] of 2.7 µM.
